Target: ORL1 (Opioid Receptor-Like 1) receptor stably expressed on recombinant CHO(ORL1^+) cells (UniProt P41146 1-370, limits assumed)
Experiment: cell-based or functional assay

Chain of ORL1 (Opioid Receptor-Like 1) receptor stably expressed on recombinant CHO(ORL1^+) cells (P41146 whole entry): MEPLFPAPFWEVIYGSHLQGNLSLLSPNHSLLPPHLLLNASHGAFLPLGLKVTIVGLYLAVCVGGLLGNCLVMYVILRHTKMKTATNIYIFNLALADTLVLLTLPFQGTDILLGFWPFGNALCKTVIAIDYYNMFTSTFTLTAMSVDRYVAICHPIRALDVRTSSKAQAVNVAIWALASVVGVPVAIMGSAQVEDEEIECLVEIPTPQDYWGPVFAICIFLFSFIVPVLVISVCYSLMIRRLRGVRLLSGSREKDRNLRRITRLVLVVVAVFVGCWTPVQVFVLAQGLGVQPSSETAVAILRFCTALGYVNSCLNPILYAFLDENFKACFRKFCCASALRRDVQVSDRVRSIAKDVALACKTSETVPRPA

Binder: YGGFTGARKSARKLANQ [^1Tyr analogue of the synthetic heptadecapeptide]
- inhibition of forskolin-induced accumulation of cAMP in CHO cells expressing the receptor, IC50: 1 nM
